According to patent US20140170149A1:

Key:
[1] = biological target: hu-HER2-ch(I) (chicken (Gallus gallus); human) (UniProt P04626); test: flow cytometry on CHO-S cells transiently transfected with hu-HER2-ch(I), PE-goat anti-human IgG, MFI (Example 24)
[2] = biological target: hu-HER2-ch(IV) (human; chicken (Gallus gallus)) (UniProt P04626); test: flow cytometry on CHO-S cells transiently transfected with hu-HER2-ch(IV), PE-goat anti-human IgG, MFI (Example 24)
[3] = biological target: hu-HER2-ch(III) (human; chicken (Gallus gallus)) (UniProt P04626); test: flow cytometry on CHO-S cells transiently transfected with hu-HER2-ch(III), PE-goat anti-human IgG, MFI (Example 24)

EC50 (read off the curve) [1]: 0.05 µg/mL
EC50 (read off the curve) [2]: 0.04 µg/mL
EC50 (read off the curve) [3]: 0.03 µg/mL
B1: HER2 HuMab 153 (antibody, V domains shown)
VH: QVQLVESGGGVVQPGRSLRLSCAASGFTFSDYVIHWVRQAPGKGLEWVTVISYDGSNKYYADSVKGRFTISRDNSKNTLYLQMNSLSAEDTAMYYCARGGITGTTGVFDYWGQGTLVTVSS
VL: DIQMTQSPSSLSASVGDRVTITCRASQGISSWLAWYQQKPEKAPKSLIYDASSLQSGVPSRFSGSGYGTDFSLTISSLQPEDFAIYYCQQYKSYPITFGQGTRLEIK
